Here are results for 1 molecule from US20240199757A1 (UNIVERSITY OF CHICAGO, published 2024).

Where a chain is given by its changes, count along the chain named.

Assay [1] deals with T1, Full-length cynomolgus NT5E (recombinant) (cynomolgus, UniProt P21589 27-549 (human entry)).
T1 construct: also called cNT5E; cyno NT5E
T1 chain: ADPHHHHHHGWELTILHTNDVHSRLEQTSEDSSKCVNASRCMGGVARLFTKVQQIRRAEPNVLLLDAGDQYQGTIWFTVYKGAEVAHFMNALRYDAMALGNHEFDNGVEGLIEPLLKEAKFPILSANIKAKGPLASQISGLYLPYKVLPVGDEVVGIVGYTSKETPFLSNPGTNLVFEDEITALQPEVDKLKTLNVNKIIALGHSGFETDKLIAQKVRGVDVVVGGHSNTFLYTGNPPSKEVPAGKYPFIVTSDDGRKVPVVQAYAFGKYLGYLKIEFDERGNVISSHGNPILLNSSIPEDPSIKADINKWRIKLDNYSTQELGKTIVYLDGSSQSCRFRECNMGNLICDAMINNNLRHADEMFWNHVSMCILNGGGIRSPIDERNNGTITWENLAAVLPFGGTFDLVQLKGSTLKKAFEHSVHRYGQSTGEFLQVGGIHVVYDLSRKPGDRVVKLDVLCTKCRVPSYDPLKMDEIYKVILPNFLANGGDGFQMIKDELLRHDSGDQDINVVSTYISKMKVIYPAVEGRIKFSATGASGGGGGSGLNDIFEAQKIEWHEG
Put plainly: SPR, His-captured NT5E, 1 mM ATP. On the procedure: (§1) All SPR experiments were performed at 25° C. using MASS-1 (Bruker) instrument. hNT5E, mNT5E and cNT5E were immobilized onto a nitrilotriacetic acid (NTA) sensor chip via His-tag. For kinetic experiments, after ligand immobilization, 2-fold serial dilutions of the Fabs were injected. After double-reference subtraction data were analyzed with BiaEvaluation (GE Healthcare) or Sierra Analyser (Bruker) software. The experiments were carried in buffers in presence and absence of 1 mM ATP to compare the kinetic parameters of the Fabs binding to closed and open form of NT5E.
On the technique in general: Surface plasmon resonance follows binding to a sensor surface in real time, without labels.

In assay [2] the target is T2, Full-length human NT5E (recombinant, in-house) (human, UniProt P21589 27-549).
T2 construct: also called hNT5E; hNT5EWT
T2 sequence: T1 chain with T209M, M363T, I476V
Put plainly: SPR, His-captured NT5E, 1 mM ATP. As to the method:
as §1

Assay [3] deals with T1, Full-length cynomolgus NT5E …. Nature of the assay: SPR, His-captured NT5E, no ATP. As to the method:
as §1

Assay [4] deals with T2, Full-length human NT5E (recombinant, …). Nature of the assay: SPR, His-captured NT5E, no ATP. On the procedure: as §1

B1: 1789 Fab (Fab, V domains shown)
VH: EVQLVESGGGLVQPGGSLRLSCAASGFNVSYSSIHWVRQAPGKGLEWVASISSSSGYTYYADSVKGRFTISADTSKNTAYLQMNSLRAEDTAVYYCARNYWGWYPFYYFAFDYWGQGTLVTV
VL: DIQMTQSPSSLSASVGDRVTITCRASQSVSSAVAWYQQKPGKAPKLLIYSASSLYSGVPSRFSGSRSGTDFTLTISSLQPEDFATYYCQQGWDYPITFGQGTKVEIKR
B1: the dissociation constant (Kd) came out at 32 nM in assay [1], 42 nM in assay [2], 150 nM in assay [3] and 760 nM in assay [4]. The koff in assay [1] amounted to 0.0051 s⁻¹; in assay [2], 0.0073 s⁻¹; in assay [3] it was 0.02 s⁻¹; in assay [4], 0.044 s⁻¹. Further, the kon came to 160000 M⁻¹ s⁻¹ in assay [1], 170000 M⁻¹ s⁻¹ in assay [2] and 57000 M⁻¹ s⁻¹ in assay [4].

A word on the Kd: it is the free concentration of one partner at which half of the binding sites on the other are occupied at equilibrium, for simple one-to-one binding. By koff is commonly meant the first-order rate constant of dissociation. By kon is commonly meant the second-order rate constant of association.
